# In FireProtDB (doi:10.1093/jb/mvy087):
# Conditions: Equus caballus; pH 7; Thermal; CD; CAPS buffer; transition: 2; reversible: yes
# Chain of Cytochrome c wild type, P00004 (P00004 whole entry): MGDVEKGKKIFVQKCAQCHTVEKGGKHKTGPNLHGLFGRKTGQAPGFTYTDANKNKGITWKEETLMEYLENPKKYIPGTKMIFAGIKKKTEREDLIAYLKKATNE
substance,measurement,value
"Cytochrome c wild type, P00004",Tm,83.4 °C
same,heat capacity change of unfolding,1.3 kcal/mol/K
same,unfolding enthalpy (calorimetric),76.7 kcal/mol
